# Target: T1, activated soluble HLA-A*0201 (PolyTest) (human)
# T1 construct: also called sHLA
# Experiment: fluorescence polarization competition against 2.2 nM standard FITC-labeled peptide P5(A*0201), 40.5 µg/ml sHLA A*0201VLDL (2507)
# Experimental: After reaching equilibrium conditions, fluorescence polarization expressed in mP was measured. Values obtained at different peptide dilutions were graphed and inhibitory concentrations expressed as log [IC50]'s determined by fitting the data to a dose-response model.
# For all preparations, 1×BGG/PBS was used as buffer. […] FP values given as milli-polarization (mP) are calculated by the equation:polarization (mP)=1000(S−GP)/(S+GP), where S and P are background-subtracted intensities of the fluorescence measured in the parallel (S) and perpendicular (P) directions, respectively, and G (grating) is the instrument and assay dependent correction factor.
# Competition experiments were analyzed by plotting FPₘₐₓ (maximal polarization) values as a function of the logarithms of competitor concentrations. […] Observed inhibitory concentrations (IC₅₀) were determined by nonlinear curve fitting to a dose-response model with variable slope using the specific software Prism (Graph Pad Software Inc.; San Diego, Calif.).
row,Binder,logIC50(nM)
1,"GVLPALPQV (Synthetic peptide; also called GVL(47)) [GVL peptide, GVLPALPQV (hCGβ 47-55)]",2.97 log10 of nM
2,"VLQGVLPAL (Synthetic peptide; also called VLQ(44)) [VLQ peptide, VLQGVLPAL (hCGβ 44-52)]",2.96 log10 of nM
3,"TMTRVLQGV (Synthetic peptide; also called TMT(40)) [TMT peptide, TMTRVLQGV (hCGβ 40-48)]",3.27 log10 of nM

# — patent US20090233318A1 (RECEPTOR LOGIC, published 2009)
